Measured values from patent US20140087995A1 (published 2014).
Bridge positions count the residues as written; N and C are the ends. Side chains are listed from the residue outwards. Ends that are not written are not given here. * marks the point of attachment. C20 diacid = O=C(O)CCCCCCCCCCCCCCCCCCC(=O)*; AEEA = NCCOCCOCC(=O)O

T1: human calcitonin receptor (human, UniProt P30988 25-474)
T1 construct: whole, on cells; Membranes of stably transfected cells; also called hCTR; hCT
T1 sequence (looked up): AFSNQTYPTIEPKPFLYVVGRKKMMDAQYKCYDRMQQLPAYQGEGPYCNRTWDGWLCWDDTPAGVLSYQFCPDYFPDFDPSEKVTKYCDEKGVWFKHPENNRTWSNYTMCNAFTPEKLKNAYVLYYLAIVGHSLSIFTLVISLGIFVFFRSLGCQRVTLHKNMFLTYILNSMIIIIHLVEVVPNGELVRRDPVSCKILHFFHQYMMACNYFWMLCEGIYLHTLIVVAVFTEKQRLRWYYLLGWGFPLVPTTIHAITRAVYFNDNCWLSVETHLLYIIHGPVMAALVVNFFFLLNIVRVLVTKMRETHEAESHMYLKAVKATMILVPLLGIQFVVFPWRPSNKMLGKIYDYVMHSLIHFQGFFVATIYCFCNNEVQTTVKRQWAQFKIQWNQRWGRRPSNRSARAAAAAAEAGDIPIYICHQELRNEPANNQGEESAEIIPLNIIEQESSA

T2: rat calcitonin receptor (rat, UniProt P32214 25-516)
T2 construct: whole, on cells; Membranes of transiently transfected BHK tk'ts 13 cells; also called rCTR; rat calcitonin (a) receptor
T2 sequence (looked up): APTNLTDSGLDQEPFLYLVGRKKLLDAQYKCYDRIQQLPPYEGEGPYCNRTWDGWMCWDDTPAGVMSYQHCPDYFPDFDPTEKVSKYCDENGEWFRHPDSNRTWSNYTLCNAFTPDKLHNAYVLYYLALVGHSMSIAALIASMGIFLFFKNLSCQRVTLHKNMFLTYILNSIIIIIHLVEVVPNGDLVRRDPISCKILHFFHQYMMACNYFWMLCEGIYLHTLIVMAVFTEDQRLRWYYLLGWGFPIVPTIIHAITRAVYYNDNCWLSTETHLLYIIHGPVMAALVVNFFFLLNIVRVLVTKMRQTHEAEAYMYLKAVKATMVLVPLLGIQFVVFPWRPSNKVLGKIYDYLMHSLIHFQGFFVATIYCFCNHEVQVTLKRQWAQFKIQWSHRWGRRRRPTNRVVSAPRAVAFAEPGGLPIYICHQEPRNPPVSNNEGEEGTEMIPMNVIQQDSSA

T3: rat amylin receptor (rat calcitonin receptor + rat RAMP 3) (rat, UniProt P32214 25-516; Q9JJ73 23-147)
T3 construct: whole, on cells; Membranes of transiently transfected BHK tk'ts 13 cells; also called rAmylin-R; rat amylin 3(a) receptor
T3 sequence (looked up) 1: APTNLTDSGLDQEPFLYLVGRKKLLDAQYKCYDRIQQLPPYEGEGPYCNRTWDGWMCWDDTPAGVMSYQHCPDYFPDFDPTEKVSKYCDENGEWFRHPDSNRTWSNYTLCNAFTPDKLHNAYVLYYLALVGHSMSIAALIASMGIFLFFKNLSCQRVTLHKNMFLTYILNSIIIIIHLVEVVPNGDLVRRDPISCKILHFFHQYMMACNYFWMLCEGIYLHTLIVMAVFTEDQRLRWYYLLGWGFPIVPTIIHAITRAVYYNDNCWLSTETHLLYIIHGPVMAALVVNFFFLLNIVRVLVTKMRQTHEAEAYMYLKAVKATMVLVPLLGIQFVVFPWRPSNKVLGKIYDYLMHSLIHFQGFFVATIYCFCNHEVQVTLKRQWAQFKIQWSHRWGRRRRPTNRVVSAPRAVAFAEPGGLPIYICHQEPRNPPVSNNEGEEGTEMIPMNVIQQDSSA
T3 sequence (looked up) 2: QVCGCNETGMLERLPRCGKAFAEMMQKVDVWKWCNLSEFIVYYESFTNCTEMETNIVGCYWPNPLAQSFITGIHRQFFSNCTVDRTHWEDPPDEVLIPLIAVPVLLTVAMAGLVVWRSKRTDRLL

B1: N^ε1-[2-[2-[2-(19-carboxynonadecanoylamino)ethoxy]ethoxy]acetyl]-[Arg17,Pro21,Pro27,His34]-h-amylin (peptide)
peptide: K([AEEA-C20 diacid])CNTATCATQRLANFLRHSSPNFGAIPSSTNVGHNTY-NH2
modifications: disulfide 2-7; N-terminus assumed
SMILES: CC[C@H](C)[C@H](NC(=O)[C@H](C)NC(=O)CNC(=O)[C@H](Cc1ccccc1)NC(=O)[C@H](CC(N)=O)NC(=O)[C@@H]1CCCN1C(=O)[C@H](CO)NC(=O)[C@H](CO)NC(=O)[C@H](Cc1c[nH]cn1)NC(=O)[C@H](CCCNC(=N)N)NC(=O)[C@H](CC(C)C)NC(=O)[C@H](Cc1ccccc1)NC(=O)[C@H](CC(N)=O)NC(=O)[C@H](C)NC(=O)[C@H](CC(C)C)NC(=O)[C@H](CCCNC(=N)N)NC(=O)[C@H](CCC(N)=O)NC(=O)[C@@H](NC(=O)[C@H](C)NC(=O)[C@@H]1CSSC[C@H](NC(=O)[C@@H](N)CCCCNC(=O)COCCOCCNC(=O)CCCCCCCCCCCCCCCCCCC(=O)O)C(=O)N[C@@H](CC(N)=O)C(=O)N[C@@H]([C@@H](C)O)C(=O)N[C@@H](C)C(=O)N[C@@H]([C@@H](C)O)C(=O)N1)[C@@H](C)O)C(=O)N1CCC[C@H]1C(=O)N[C@@H](CO)C(=O)N[C@@H](CO)C(=O)N[C@H](C(=O)N[C@@H](CC(N)=O)C(=O)N[C@H](C(=O)NCC(=O)N[C@@H](Cc1c[nH]cn1)C(=O)N[C@@H](CC(N)=O)C(=O)N[C@H](C(=O)N[C@@H](Cc1ccc(O)cc1)C(N)=O)[C@@H](C)O)C(C)C)[C@@H](C)O
notes: Synthetic acylated analogue of human amylin; also called compound 91
B2: N^ε1-[2-[2-[2-(19-carboxynonadecanoylamino)ethoxy]ethoxy]acetyl]-[His14,Arg17,Pro21,Pro27]-h-amylin (peptide)
peptide: K([AEEA-C20 diacid])CNTATCATQRLAHFLRHSSPNFGAIPSSTNVGSNTY-NH2
modifications: disulfide 2-7; N-terminus assumed
SMILES: CC[C@H](C)[C@H](NC(=O)[C@H](C)NC(=O)CNC(=O)[C@H](Cc1ccccc1)NC(=O)[C@H](CC(N)=O)NC(=O)[C@@H]1CCCN1C(=O)[C@H](CO)NC(=O)[C@H](CO)NC(=O)[C@H](Cc1c[nH]cn1)NC(=O)[C@H](CCCNC(=N)N)NC(=O)[C@H](CC(C)C)NC(=O)[C@H](Cc1ccccc1)NC(=O)[C@H](Cc1c[nH]cn1)NC(=O)[C@H](C)NC(=O)[C@H](CC(C)C)NC(=O)[C@H](CCCNC(=N)N)NC(=O)[C@H](CCC(N)=O)NC(=O)[C@@H](NC(=O)[C@H](C)NC(=O)[C@@H]1CSSC[C@H](NC(=O)[C@@H](N)CCCCNC(=O)COCCOCCNC(=O)CCCCCCCCCCCCCCCCCCC(=O)O)C(=O)N[C@@H](CC(N)=O)C(=O)N[C@@H]([C@@H](C)O)C(=O)N[C@@H](C)C(=O)N[C@@H]([C@@H](C)O)C(=O)N1)[C@@H](C)O)C(=O)N1CCC[C@H]1C(=O)N[C@@H](CO)C(=O)N[C@@H](CO)C(=O)N[C@H](C(=O)N[C@@H](CC(N)=O)C(=O)N[C@H](C(=O)NCC(=O)N[C@@H](CO)C(=O)N[C@@H](CC(N)=O)C(=O)N[C@H](C(=O)N[C@@H](Cc1ccc(O)cc1)C(N)=O)[C@@H](C)O)C(C)C)[C@@H](C)O
notes: Synthetic acylated analogue of human amylin; also called compound 90

Experiments:
[1] = molecular target: T1, human calcitonin receptor; experiment: ratio of IC50 on human calcitonin receptor to IC50 on human amylin receptor (reference m42), SPA competition
Procedure: The resulting pellet was resuspended, homogenized and centrifuged (20.000 rpm, 15 min) in a buffer containing 20 mM Na-HEPES and 0.1 mM EDTA (pH 7.4, buffer 2). The resulting pellet was resuspended in buffer 2 and protein concentration was measured (BCA protein Assay, Pierce). The homogenate was kept cold during the whole procedure. The membranes were kept at −80° C. until use. The assay was performed in a 384 well Optiplate (PerkinElmer) in a total volume of 40 ul. Membranes were mixed with SPA beads. Final concentration of membranes 35 ng/μL final and SPA beads was 0.05 mg/well. Test-compounds were dissolved in DMSO and further diluted in assay buffer (50 mM Hepes, pH 7.4, 1 mM CaCl2, 5 mM MgCl₂, 0.1% OA and 0.02% Tween20). […] The final mixture was incubated with shaking at 400 rpm for 120 min at 25° C. prior to centrifugation (1500 rpm, 10 min). Samples were analyzed on TopCounter™ (Packard). The IC₅₀ was calculated using (one site binding competition analysis) GraphPad Prism5 as a measure of receptor affinity.
Membranes were prepared in the following way; the cells were rinsed with PBS and incubated with Versene for approximately 5 min before harvesting. The cells were flushed with PBS and the cell-suspension was centrifuged for 5 min at 1000 rpm. Cells were homogenized (Ultrathurrax) in a buffer containing 20 mM Na-HEPES and 10 mM EDTA (pH 7.4) and centrifuged at 20.000 rpm for 15 min. The resulting pellet was resuspended, homogenized and centrifuged (20.000 rpm, 15 min) in a buffer containing 20 mM Na-HEPES and 0.1 mM EDTA (pH 7.4, buffer 2). The resulting pellet was resuspended in buffer 2 and protein concentration was measured (BCA protein Assay, Pierce). The homogenate was kept cold during the whole procedure. The membranes were kept at −80° C. until use. Assay was performed in a 384 well Optiplate (PerkinElmer) in a total volume of 40 ul. Membranes were mixed with SPA beads.

rat calcitonin receptor [2] = molecular target: T2, rat calcitonin receptor; experiment: ratio of IC50 on rat calcitonin receptor to IC50 on rat amylin receptor (reference m40)
[3] = molecular target: T3, rat amylin receptor (rat calcitonin …); experiment: SPA competition with 125I-rat amylin on membranes of BHK tk'ts 13 cells with rat calcitonin receptor + rat RAMP3 (Assay VI)
rat calcitonin receptor [4] = molecular target: T2, rat calcitonin receptor; experiment: SPA competition with 125I-calcitonin on membranes of BHK tk'ts 13 cells with rat calcitonin receptor (Assay VIII)

Binder	Ratio hCT/hAmylin binding [1]	Ratio rCT/rAmylin binding (rat calcitonin receptor [2])	IC50 [3]	IC50 (rat calcitonin receptor [4])
B1	101	76.3	0.386 nM	29.4 nM
B2	42.2	74.1	0.246 nM	18.2 nM
